Results on 141 substances are retold here after the supplement of paper PMC12042874.

± gives the uncertainty stated by the source.

A short description of the data set: amyloid nucleation score (Sup35N fusion, yeast selection) (log enrichment); library NNK2; higher = more nucleation; inactive = no reads after selection. An outline of the steps: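 DiMSum was used to calculate nucleation scores as log enrichment of output over input reads, centred on the mode score of non-aggregating sequences. Sequences with fewer than 100 input reads were not scored. Input and output came from Illumina sequencing of plasmid inserts in psi-negative yeast expressing peptides of 20 random codons fused to Sup35N, induced 24 hours with 100 μM copper sulfate and then grown 7 days at 30°C on medium lacking adenine and uracil.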
Consider FLSGVFIMRFHLNY, for which the amyloid nucleation score result is “inactive”. Turning to GIGLRLCLSDRLWMRSIYVD, the amyloid nucleation score turned out to be 3.56 ± 0.082. With KLAYCYSSYSHHD the figure was 0.316 ± 0.65. With APKGMTLFPQMLTLMCNTVG the figure was 0.56 ± 0.74; with VSLLWYHFGWLLDCFWYRWS, 0.429 ± 0.8. Regarding VRLNDWMVHLND, the amyloid nucleation score stood at 0.752 ± 0.35. The substance NQMYQNE came in with an amyloid nucleation score of -0.352 ± 0.45.

Regarding SRRETTYHVVMDTFPTFAIT, the amyloid nucleation score worked out at 0.943 ± 0.52. In the case of LYQMCIRLI, the amyloid nucleation score was -0.657 ± 0.55. For LYIYLNYFNTAVTFYGCVCS, the amyloid nucleation score is 3.94 ± 0.052. With NHIFYRMCSNLTAKYIRLTS the entry was “inactive”; with ALENSDSELCETAWFFHFMH, 0.185 ± 0.8; with LGRCSALGYIRISCTMKGAG, 0.21 ± 0.74. Substance RLSPPRNWLVRRRRIFNGLL yielded an amyloid nucleation score of -0.757 ± 0.76. Under PYTFQYY stands -0.549 ± 0.26; under LSSHVCGGM, 4.8 ± 0.054.

As to KNFQEHYVFLRARRLKLLSY, the amyloid nucleation score is -0.095 ± 0.8. For the substance LFLRLVNQMVLLIKEWNVWG, the amyloid nucleation score was 0.196 ± 0.3. The substance YCMMPATGICVLDVSVCRDT yielded an amyloid nucleation score of 8.289 ± 0.054. Substance RDMHLGRTEFVARYWELFRY came in with an amyloid nucleation score of -0.473 ± 0.78. Turning to RIRASKPVFKAFLTPGSYLF, the amyloid nucleation score was -1.87 ± 1. Consider ANHVSKDIFVNCEVKVPHVW, for which the amyloid nucleation score worked out at 5.937 ± 0.051. Consider FATKRERNVWFMSIEWFVRG, for which the amyloid nucleation score is -0.707 ± 0.44. In turn, SCNNLGDLWLSIILVKSET registered an amyloid nucleation score of 0.044 ± 1.1. Consider RGYFPFYNR, for which the amyloid nucleation score was -0.907 ± 0.65.

Substance NLNPRCIACLQQPTFHMKMA yielded an amyloid nucleation score of -0.101 ± 0.32. With VVIQPGTYFYLCNIFA the figure was -1.58 ± 0.78; with NFSDFRCLL, -0.031 ± 1. Regarding TQMTMEGAYPCCVVVP, the amyloid nucleation score is 0.903 ± 0.74.

In turn, RIFMWAYLAYCDNISEVRRR came in with an amyloid nucleation score of -0.554 ± 1.

For CPLFYMSMISGFEGIFSLHK, the amyloid nucleation score result was “inactive”. With AGMHLRVWHSDTHHWLLLNR the figure was 3.76 ± 0.074.

Regarding RERVFIGNGWTRLSRARGQA, the amyloid nucleation score was -1.15 ± 0.62. Turning to VLYFLYGKWQKTQRSNRYLQ, the amyloid nucleation score was -0.674 ± 0.76. With CVMSFYPELIILASSFCVPF, the amyloid nucleation score was -1.22 ± 0.36. The substance LDPTVPGVIANVPNRRLARS returned an amyloid nucleation score of 5.87 ± 0.061. Regarding THVDFLWIVNLGGSHI, the amyloid nucleation score came out at 7.519 ± 0.041. SMMQLCV gave an amyloid nucleation score of -0.043 ± 0.54. Turning to ESGVHWENTEVKGIYSYLCR, the amyloid nucleation score result is “inactive”. Under QNIKIW stands -1.02 ± 0.55; under KRSVVKNLG, 0.157 ± 0.29; under FWVMANYRH, 3.18 ± 0.047. VGYSEMGVADLGHGGW displayed an amyloid nucleation score of 1.15 ± 0.31. In turn, VYNFSFSNSNVK displayed an amyloid nucleation score of 6.669 ± 0.047. In turn, LRPDSNWTGVESLFR came in with an amyloid nucleation score of -0.66 ± 0.55.

Consider DYFAIRWGQVT, for which the amyloid nucleation score result is “inactive”. Substance VGGLFYLLLMG yielded an amyloid nucleation score of -0.865 ± 0.53. For RLSEVTKDYVGTCNLDRLS, the amyloid nucleation score was -0.157 ± 0.29. Under CVDVDIKMLPGFCRCNIPLC stands -1.34 ± 1.1; under VYCIVRMYIALWCYVLDYVE, 0.34 ± 0.36. RVLMHHYTLANLVSLVTNFF displayed an amyloid nucleation score of 5.867 ± 0.043. In turn, HIYRKM yielded an amyloid nucleation score of 0.151 ± 0.2. Regarding FCGISSR, the amyloid nucleation score was -0.411 ± 0.56. As to DGFVGALDGVISSCWNTLRG, the amyloid nucleation score is -0.701 ± 0.63.

LLFLRYVVYFGNLDCLGLYM showed an amyloid nucleation score of -1.44 ± 1. VFLYAYYLNI had an amyloid nucleation score of 0.039 ± 0.77. With LNEVFDLVPSYCKFSVVRGL the figure was -1.14 ± 0.64. YCLSDKWTLCG yielded an amyloid nucleation score of 0.367 ± 0.41.

Take SLEVCLIALDYGIQFLSTSA: the amyloid nucleation score worked out at 0.099 ± 0.18. For the substance LYIDIRRSCLVCNGMSWRAG, the amyloid nucleation score turned out to be 5.865 ± 0.052. With YEYDLSPCSVVRRVTLKRMV the figure was 1.55 ± 0.4; with FVNLRVILH, 5.18 ± 0.052.

Regarding RRVYCNIIVSGVCVSGE, the amyloid nucleation score was 1.42 ± 0.12. Substance CLHCSRFSKTLYRKFRNREN registered an amyloid nucleation score of -0.33 ± 0.76. Under IARIRILCLL stands 0.234 ± 0.19; under WSLQSQGYRILDGYGV, 0.6 ± 0.44. On to IFLAWMVPAGFWR, for which the amyloid nucleation score came out at 0.56 ± 0.54. As for RTGGNILQYFYIVRAHSGWC, the amyloid nucleation score was found to be 1.35 ± 0.16. GMTVR returned an amyloid nucleation score of 0.011 ± 0.54. The substance VMGEKIWSAWYTRDDQLCGS returned an amyloid nucleation score of 0.547 ± 0.36. With SDNSM the figure was -0.235 ± 0.32. In turn, PQWWRNLLSKSGTNAADCYL returned an amyloid nucleation score of 0.577 ± 0.57. For the substance YLSVPSGQSGGDGFNDESSV, the amyloid nucleation score result was “inactive”. TDWGTLARMGLASLC: the amyloid nucleation score result is “inactive”. Substance LYGHSVNMVV had an amyloid nucleation score of -0.224 ± 0.39. As to TCLTFRFI, the amyloid nucleation score result was “inactive”.

As for KRNDCLFGRVALCGMFRLSA, the amyloid nucleation score was determined as 0.198 ± 0.5. Under LYCDECISWYAHDWLNI stands 0.409 ± 0.45; under FEAVDWFKL, -0.603 ± 0.74. Consider TVYNDNFVCRILNLDITILF, for which the amyloid nucleation score came out at 6.957 ± 0.053. Under TWQVMRRYLENPDGSL stands -1.03 ± 0.62; under GCKVIYIYIIHIFKCIITNW, “inactive”; under MIFYDAIGWKLGNRGSN, -0.728 ± 0.45. As for VTFYLGSSE, the amyloid nucleation score is 0.155 ± 1.1. Turning to RYCVDNW, the amyloid nucleation score was 0.122 ± 0.41.

Substance WHCNFMHWVHKR returned an amyloid nucleation score of 6.383 ± 0.06. The substance MNFWILFQNLQHRCVQVTGR yielded an amyloid nucleation score of 3.64 ± 0.068. As for NSVSCANYTLHPIAMDWNGP, the amyloid nucleation score result is “inactive”. Substance AFFNE returned an amyloid nucleation score of 6.023 ± 0.039. With DCHEGRTNPRALKCFTEERG the figure was 0.173 ± 1.1; with NFFAHRVCHYFVIRCGLIT, “inactive”. FMSLTSMLCNLRTNSCMCAR returned an amyloid nucleation score of -0.014 ± 0.21.

The substance MGTHKTDGRRQYLVVSSCEV registered an amyloid nucleation score of 0.115 ± 1. As for YPLGS, the amyloid nucleation score entry was “inactive”. TCFVC registered an amyloid nucleation score of 5.746 ± 0.052. CFVNGLRNSHLGNLVWVPIG came in with an amyloid nucleation score of -1 ± 0.39. As to VKLMY, the amyloid nucleation score was -1.12 ± 0.62.

Substance KMRDGFISLVKCEYVGGFGC had an amyloid nucleation score of -0.856 ± 0.76. As to HNNCNRFCQSIVLH, the amyloid nucleation score amounted to 6.34 ± 0.078.

Take APFCSIVTTDVP: the amyloid nucleation score is -0.363 ± 1.1. On to TCIVSRRSCTCNRSQSGYRR, for which the amyloid nucleation score worked out at 1.08 ± 0.22. TMLCYYINFRLIVYRSWYKQ: the amyloid nucleation score was -0.788 ± 0.34.

As to LRWDGEDWRWDALWVTSSVC, the amyloid nucleation score was determined as 0.512 ± 0.2. With GVEQFFGRSSAVHL, the amyloid nucleation score was -0.341 ± 0.79. LSRESTCIFSMNKDVFS displayed an amyloid nucleation score of 0.016 ± 1.1. With RVHSCCTGKIGYKGVIVISV the figure was 0.051 ± 0.43; with YVLFFHGIMSCTPMQYQYMG, “inactive”; with WWEVIRLSLRS, 2.04 ± 0.13. Substance TWVVRVGFMLAYLKQR displayed an amyloid nucleation score of 2.63 ± 0.093. HDRWNWGDCFVIDHALLLMG gave an amyloid nucleation score of 0.393 ± 0.31. On to YGNPRIFIESMKYEVGIRVS, for which the amyloid nucleation score result is “inactive”. For SSMRRGVIRRCNYKL, the amyloid nucleation score is -0.992 ± 0.24. In turn, ALSSNPVLSCKLC came in with an amyloid nucleation score of 6.917 ± 0.027.

DNDYTWIKFLKCGRADASGT showed an amyloid nucleation score of 0.157 ± 0.5. LPVHANNGVNMFILIVPPGS had an amyloid nucleation score of 5.948 ± 0.051. As to RSLDEPSFFIPMPMYWVLGV, the amyloid nucleation score was found to be 0.271 ± 0.65. On to NSRISKNNLSRSLT, for which the amyloid nucleation score is -0.196 ± 0.56. Substance NHTSNIGSRGTAFFWVLR had an amyloid nucleation score of 7.187 ± 0.069. On to KNIPFRMYWS, for which the amyloid nucleation score was determined as 2.6 ± 0.075.

The substance VDMPTSQFVTSTTLGTLVTM displayed an amyloid nucleation score of 2.32 ± 0.12. Under LLFPQANMKDRSSPGVDWAQ stands 2.72 ± 0.068; under SCDLYDTKSESFWLPSNMGS, 0.73 ± 0.44. Under SFFWPPHLKRVLFLQLRTIC stands 0.777 ± 0.44; under ALEFNT, 4.14 ± 0.1; under VMVAYSLLGSRSSILLW, 0.021 ± 0.32. IMLKGDWC came in with an amyloid nucleation score of -0.189 ± 0.47. For NYCYLFLTYCWVQRMSEGFS, the amyloid nucleation score was determined as 2.88 ± 0.098. For SVFIGVVPNESQCYV, the amyloid nucleation score stood at 0.069 ± 0.39. On to RGGSTPYYNWSAGDGWKKDK, for which the amyloid nucleation score stood at 2.86 ± 0.065. As to ISVYLSRSIFI, the amyloid nucleation score is -0.326 ± 1.

The substance MRYSPWQGTHILWVLNTTSY came in with an amyloid nucleation score of 1.82 ± 0.32. For the substance IMHSLLRSGN, the amyloid nucleation score result is “inactive”. In turn, GYLGMWVKTCCQWTGERSDM yielded an amyloid nucleation score of 4.66 ± 0.057.

As for YVANGPFCPDFLLLAGWYGV, the amyloid nucleation score amounted to 0.447 ± 0.53. VDGVKTSIKGRNFI registered an amyloid nucleation score of -0.259 ± 0.45. In turn, QFEVNNLTPIGEEGGPKDCP gave an amyloid nucleation score of 0.759 ± 0.43. The substance YFCSVSRFRVLDSDYYRKGW showed an amyloid nucleation score of -0.817 ± 1.1.

In turn, MSLSLQKYFLWRPGRAPVVR showed an amyloid nucleation score of -0.03 ± 0.63. In turn, GWAIPFADIEHCHVLLRISV showed an amyloid nucleation score of 0.914 ± 0.46.

In the case of RINMPTYLLNWFSCHNYRFS, the amyloid nucleation score was 3.98 ± 0.093.

YTLFPAVLECDQVLYVSVNF showed an amyloid nucleation score of 6.491 ± 0.037.
